Laboratory results published in patent publication US20040071690A1.

Key:
NC41 Fab [1] = test: gel filtration FPLC on Superose 12
NC41 Fab [2] = test: sedimentation equilibrium of the isolated complex
NC41 Fab [3] = test: BIAcore SPR; NC41 Fab immobilised, scFv as analyte (apparent, multivalent)
NC41 Fab [4] = test: BIAcore SPR; NC41 Fab immobilised, scFv as analyte
NC10 scFv-5 dimer = test: BIAcore SPR; scFv-5 dimer immobilised (200 RU), Fab′ as analyte
[5] = molecular target: NC10 scFv-0 trimer (VH-VL); test: BIAcore SPR; scFv-0 trimer immobilised (450 RU), Fab′ as analyte
NC10 scFv-10 dimer = test: BIAcore SPR; scFv-10 dimer immobilised (200 RU), Fab′ as analyte
NC10 scFv-15 monomer [6] = test: BIAcore SPR; scFv-15 monomer immobilised (2000 RU), Fab′ as analyte
NC10 scFv-15 monomer [7] = test: BIAcore SPR; scFv-15 monomer immobilised (~2000 RU), from the RU increase
[8] = molecular target: Anti-idiotype 3-2G12 Fab′; test: sedimentation equilibrium of the isolated complex, fitted as a single species
[9] = molecular target: Anti-idiotype 3-2G12 Fab′; test: sedimentation equilibrium of the isolated complex
[10] = molecular target: Anti-idiotype 3-2G12 Fab′; test: BIAcore SPR; 3-2G12 Fab′ immobilised (1000 RU), scFv as analyte

## 11-1G10 scFv-0 trimer
NC41 Fab [1]
  apparent molecular mass of complex: 245 kDa
NC41 Fab [2]
  molecular mass of complex (experimental): 262000 Da
NC41 Fab [3]
  koff: 8.2e-05 s⁻¹

## 11-1G10 scFv-15 monomer
NC41 Fab [1]
  apparent molecular mass of complex: 79 kDa
NC41 Fab [2]
  molecular mass of complex (experimental): 78600 Da
NC41 Fab [4]
  koff: 0.00032 s⁻¹

## Anti-idiotype 3-2G12 Fab′
NC10 scFv-5 dimer
  Ka: 1.06e+08 M⁻¹
  koff: 0.0033 s⁻¹
  kon: 350000 M⁻¹ s⁻¹
[5]
  Ka: 1.13e+08 M⁻¹
  koff: 0.0023 s⁻¹
  kon: 260000 M⁻¹ s⁻¹
NC10 scFv-10 dimer
  Ka: 1.3e+08 M⁻¹
  koff: 0.0029 s⁻¹
  kon: 370000 M⁻¹ s⁻¹
NC10 scFv-15 monomer [6]
  Ka: 2.5e+08 M⁻¹
  koff: 0.0021 s⁻¹
  kon: 500000 M⁻¹ s⁻¹
NC10 scFv-15 monomer [7]
  percent of immobilised protein active: < 10%

## NC10 scFv-0 trimer (VH-VL)
[8]
  molecular mass of complex (measured, apparent average): 212000 Da

## NC10 scFv-5 dimer
[9]
  molecular mass of complex (measured): 156000 Da

## NC10 scFv-15 monomer
[9]
  molecular mass of complex (measured): 77900 Da
[10]
  Ka: 4.2e+08 M⁻¹
  koff: 0.00174 s⁻¹
  kon: 740000 M⁻¹ s⁻¹
